According to publication PMC6548343:

Target: Nucleosomes (Nuc207) with 30 bp linker DNA at both ends
Assay: EM 3D reconstruction of the assembled complex; ~30 μg/ml actin/Arp module with a 10-fold molar excess of Nuc207, 2 h at 4°C, 20 mM HEPES pH 8.0, 40 mM KOAc, 5 mM MgCl2, no ATP; two binding states

INO80 N-terminal subcomplex (N.com) (from UniProt P53115 356-691; P60010 1-375; P80428 1-489; Q12386 1-881; P35189 1-244; Q08561 1-116)
stoichiometry N: 1
